# ± gives the standard error. Fewer inactive variants are shown than the library holds.
# B1: glmS ribozyme (parent)
# chain: AUAAAAGCGCCAGAACUACAGAAAUGUAGUUGACGAGGAGGAGGUUUAUCGAAUUUUCGGCGGAUGCCUCCAAA
# Variants of: B1
# Test: self-cleavage kobs at 2500 uM GlcN6P; higher = faster cleavage; RNA array
# Details: with glucosamine-6-phosphate
# Summary of the method: (§1)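 kobs was derived by fitting per-tile medians to one- or two-exponential decays after normalising signals to baseline and to non-cleaving reference variants. Those signals came from barcoded ribozyme variants transcribed in situ by E. coli RNA polymerase on sequenced MiSeq chips, followed through a hybridised Cy3 probe at 37 °C and imaged over ~14 h. Glucosamine-6-phosphate (40 μM to 10 mM) in HEPES/KCl/Mg(OAc)2 buffer was flowed in. Weighted Michaelis–Menten fits across concentrations then gave kcat and KM.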
row,Variant,self-cleavage kobs at 2500 uM GlcN6P [s⁻¹]
1,G29A G63C C68G,0.000233 ± 6.2e-05
2,U31C G38U G66U,< 1e-05
3,U31C U55A G63C U69G,0.000106 ± 3.8e-05
4,C10A A12U G37U G44U C50G A53G C68U,< 1e-05
5,G13U A42C U69A,< 1e-05
6,U31C A48G G63C C67U,< 1e-05
7,C8U C10A A39C,< 1e-05
8,A52G C58G C61A A64U C67U,9.05e-05 ± 3.3e-05
9,C34A A48C U54A,< 1e-05
10,A12U U31G U56A,0.00599 ± 0.0012
11,C8G A39C C58U,< 1e-05
12,A15G G29A A36G,< 1e-05
13,C8G A33G A42G U55G,< 1e-05
14,A14C A48G C70U,5.88e-05 ± 2.6e-05
15,G35A C61U,< 1e-05
16,A48C U49C G59C,< 1e-05
17,C11A G29U C58A,< 1e-05
18,G37A A42U A52G C71A,< 1e-05
19,C16U U57A C70G,5.1e-05 ± 2.1e-05

row,Variant,self-cleavage kobs at 2500 uM GlcN6P [s⁻¹]
1,U30A G43U C61A C71U,< 1e-05
2,C34U A48U G59C C68A U69C,< 1e-05
3,A36C G37A G51C C61U,< 1e-05
4,A52U U57A C71U,0.000749 ± 0.00022
5,A12C U56G A64C,6.67e-05 ± 2.1e-05
6,A14C U31A A42C A48G C71G,< 1e-05
7,A6C A39C C68U,< 1e-05
8,G29A C50A C67G,8.63e-05 ± 3.6e-05
9,C11A C34A G41A,< 1e-05
10,C11G A33U U47G,< 1e-05
11,G38A A39U G43C A48U U55C C70A,< 1e-05
12,C11U G43U U47G,< 1e-05
13,A36U U57G A64G C67U,< 1e-05
14,A14U U55G C58G,5.25e-05 ± 1.2e-05
15,G35A G41A U54G,< 1e-05
16,A42G C61A C70A,< 1e-05
17,G37U G60U,< 1e-05
18,C16U A48G A53G,9.32e-05 ± 2.7e-05
19,A39G G41U A42G,0.000339 ± 9.9e-05

row,Variant,self-cleavage kobs at 2500 uM GlcN6P [s⁻¹]
1,A14U G32C C67A,3.21e-05 ± 1.6e-05
2,A14G G41C A42U,3.8e-05 ± 1.4e-05
3,C50U G60U A64C C70A,< 1e-05
4,G9C G59C G63U,< 1e-05
5,A39C G40A,0.000126 ± 3.1e-05
6,G44U U57A C71A,< 1e-05
7,G13U A39C U56G,3.76e-05 ± 1.4e-05
8,G32A U54A C70G,0.000378 ± 5.3e-05
9,G37A G38A A39C,< 1e-05
10,C10G G32U G62U U65G,< 1e-05
11,G41C A48U A52C A53U,< 1e-05
12,G43C C58G,< 1e-05
13,C10A A15C A42C,< 1e-05
14,G35U A42U A64U,< 1e-05
15,A12C A36G A42U U45A G51U,< 1e-05
16,U31A C70A,5.68e-05 ± 1.7e-05
17,C34A C50U C67A,< 1e-05
18,C10U A53G G66U C68G,4.34e-05 ± 1.4e-05

# Variants of: B1
# Test: self-cleavage kobs at 10000 uM GlcN6P; higher = faster cleavage; RNA array
# Details: with glucosamine-6-phosphate
# Summary of the method: as §1
row,Variant,self-cleavage kobs at 10000 uM GlcN6P [s⁻¹]
1,G44A U46G U54G,0.000373 ± 0.0001
2,G9A A15G G35A A42U C70U,< 1e-05
3,U55A C58U U65C,< 1e-05
4,G7U A14U G38C U57C G60U C67U,< 1e-05
5,U31G A36U C67A C68G,6.42e-05 ± 1.5e-05
6,A48U A52G U55A A64G,4.66e-05 ± 1.1e-05
7,A15G G29A A36G,< 1e-05
8,A12G A14C A15G,0.000141 ± 3e-05
9,G37A U54A G66U,0.000359 ± 8.7e-05
10,A52U U57A C71U,0.00177 ± 0.00039
11,C8G C16U C68A,< 1e-05
12,A48U G59U C68A,< 1e-05
13,A6C A48U U54A C67U,< 1e-05
14,A14U A36G A64G C70G,< 1e-05
15,C8A A12G A39G U45A A48C U55C,< 1e-05
16,A36U U57G A64G C67U,< 1e-05

row,Variant,self-cleavage kobs at 10000 uM GlcN6P [s⁻¹]
1,A36U G59U G60C,< 1e-05
2,C8U U45G C50U U65C,< 1e-05
3,C11A U54G A64G U69G,9.78e-05 ± 2.2e-05
4,A14U G32C C67A,8.69e-05 ± 2.8e-05
5,C11G C50G C68G C71U,8.16e-05 ± 1.7e-05
6,G9C G59C G63U,< 1e-05
7,G7A A53G,3.18e-05 ± 9.4e-06
8,G38C U45C U49A A53U,< 1e-05
9,A12C A42C G59C,< 1e-05
10,A12U A14G G41A A42G,0.000918 ± 0.0002
11,U56C A64C U65A,< 1e-05
12,U31A C70A,0.000146 ± 3e-05
13,A12C G32A G38A,< 1e-05
14,A6C G43A G59C C70U,< 1e-05
15,U30C A36U G44U C67G,< 1e-05

# From the supplement of paper PMC7125110
